Consider 52 sequences from the supplement of paper PMC10567573.

± gives the standard deviation.

A short description of this series: protein stability index of a GFP-peptide fusion (GPS, HEK-293T) (PSI 1-6); higher = more stable.
Where [1] appears, read: treatment: DMSO, c terminus: a fixed tail appended.
[2] abbreviates: treatment: MLN4924 1 uM, 8 h, c terminus: a fixed tail appended.
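Further: 24-mer peptide tiles fused after GFP, lentivirally expressed, FACS-sorted into six equal bins by GFP/DsRed ratio, decoded by Illumina sequencing, PSI is the read-weighted mean bin number.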

For the sequence FRNAASTLTERPCYNRRASKLTY [ANKRD40], the protein stability index runs as follows: (treatment: DMSO, c terminus: native) 3.26 ± 0.21; (treatment: MLN4924 1 uM, 8 h, c terminus: native) 3.16 ± 0.39.
As for KSNFRVQLFEDPTVDKEVEIRKKV [MNAT1], the protein stability index was 4.65 ± 0.33 under setting [1] and 4.69 ± 0.38 under setting [2].
For the sequence AITRVSDRFSGETSAAALSPMSAA [SMTNL2], the protein stability index is, setting by setting: under setting [1], 4.06 ± 0.15; under setting [2], 3.63 ± 0.29.
Consider VASNSELVQSSRSEVTELRRVLQG [KRT16], for which the protein stability index runs as follows: under setting [1], 4.33 ± 0.36; under setting [2], 4.47 ± 0.27.
Turning to TASSISSSGGSSGSSSDNRTYRYS [DYRK1B], the protein stability index was 4.62 ± 0.051 under setting [1] and 4.67 ± 0.15 under setting [2].
Taken in the same sequence, the figures for PGGGDICMYRHALPPGFVLKKDKK [ZC3H15] were 4.29 ± 0.2 and 4.04 ± 0.1.
The like results for TFNFISSLKAICTEIANCSLKVKF [PLD5] were, in that order, 2.68 ± 0.56 and 3.29 ± 0.1.
As for NTNVLSRDLIPPHVNFSHLTTKDY [SLC6A17], the protein stability index was 3.49 ± 0.37 under setting [1] and 3.87 ± 0.12 under setting [2].
Taken in the same sequence, the figures for DFFWNETWYLKTIDICHDHFGWYL [DHCR7] were 3.26 ± 0.74 and 2.81 ± 0.35.
The like results for KPVDIWACGVILYILLVGYPPFWD [CAMK2B] were, in that order, 3.27 ± 0.31 and 3.03 ± 0.17.
The like results for EAFKKHSLDLLSKERELNGKLRHL [CCDC89] were, in that order, 3.34 ± 0.25 and 3.38 ± 0.14.
For the sequence SVPASDPRSCSSGPAGPYLLSKKG [PLEKHN1], the protein stability index was found to be 4.65 ± 0.15 under setting [1] and 4.69 ± 0.089 under setting [2].
Taken in the same sequence, the figures for EGVAGKSGLEKEVQRLTSRAARDY [FCHSD1] were 4.69 ± 0.039 and 4.84 ± 0.09.
Taken in the same sequence, the figures for LFAFMLVYPKEFHLNRGNHEDHMV [PPEF2] were 3.03 ± 1 and 2.32 ± 0.35.
RVFQNRFSTQYRCFSVSMLAGPND [UFD1]: the protein stability index under setting [1] came to 2.38 ± 0.34 and the protein stability index under setting [2] was found to be 2.3 ± 0.26.
As to RQLEIMGKEVSGDQIEDMFEQGKW [STX11], the protein stability index under setting [1] was determined as 3.73 ± 0.13 and the protein stability index under setting [2] turned out to be 3.56 ± 0.2.
Taken in the same sequence, the figures for HKSHRGMTPAEAEMHFLENAKKLS [EPB41L3] were 4.38 ± 0.21 and 4.25 ± 0.47.
Regarding VQWKEPEEPNGQIQGYRVYYTMDP [PTPRD], the protein stability index runs as follows: under setting [1], 3.3 ± 0.16; under setting [2], 3.17 ± 0.23.
With LYLLSGSIIAVAMQRGARLPAEVA [POMT2], the protein stability index under setting [1] worked out at 2.81 ± 0.38 and the protein stability index under setting [2] was found to be 3.21 ± 0.77.
Taken in the same sequence, the figures for KMNFSTLRNIQGLFAPLKLQMEFK [POMP] were 2.2 ± 0.36 and 2.02 ± 0.098.
Take QRGHYRVARILIDLCSDVNVCSLL [RIPK4]: the protein stability index by setting is: under setting [1], 2.9 ± 0.7; under setting [2], 2.69 ± 0.28.
MWGQSLLPPVSTSFTTGGLRIPFP [TNXB]: the protein stability index by setting is: under setting [1], 2.3 ± 0.41; under setting [2], 2.42 ± 0.16.
In the case of CDLFDREIVVTISWAKSIPGFSSL [ESRRA], the protein stability index runs as follows: under setting [1], 3.28 ± 0.16; under setting [2], 2.97 ± 0.4.
Regarding VQLAQQQAALQKQQEVVVAGSSLP [ACBD3], the protein stability index is, setting by setting: under setting [1], 4.12 ± 0.11; under setting [2], 4.49 ± 0.26.
Regarding LQLLQSRTSRKFLACRLTPDMETK [INTS3], the protein stability index is, setting by setting: under setting [1], 2.69 ± 0.18; under setting [2], 2.68 ± 0.2.
Take GYELGIISGALLQIKTLLALSCHE [SLC2A12]: the protein stability index runs as follows: under setting [1], 3.61 ± 0.26; under setting [2], 3.71 ± 0.1.
Taken in the same sequence, the figures for AQKALDLPSSGEGLAFFTFPNIAS [HMOX1] were 2.88 ± 0.2 and 2.96 ± 0.25.
The like results for KWTACSRSCGGGVTSQERHCLQQR [ADAMTSL2] were, in that order, 2.75 ± 0.51 and 3.37 ± 0.59.
As for HVPLLAEPSFAQFSQEIGLASLGA [TPH1], the protein stability index runs as follows: under setting [1], 2.93 ± 0.26; under setting [2], 3.09 ± 0.12.
As for AFHINKGLVKKYMNSLLIGELSPE [FADS1], the protein stability index reads like this: under setting [1], 2.45 ± 0.47; under setting [2], 2.32 ± 0.26.
Taken in the same sequence, the figures for AAQELENQMKERQGLFFDMEAYLP [TMEM120A] were 3.69 ± 0.27 and 3.87 ± 0.21.
Taken in the same sequence, the figures for RKPVEAESVEGVVRILLEHYYKEN [INTS4] were 2.35 ± 0.27 and 2.41 ± 0.5.
The like results for NATDPDEGTNGQLDYSFGDHTSEA [PCDHGC5] were, in that order, 5.45 ± 0.32 and 5.24 ± 0.12.
As for GKWQQQGDLQDTKENREEARFQDK [CHGB], the protein stability index worked out at 5.44 ± 0.36 under setting [1] and 5.33 ± 0.16 under setting [2].
Consider AEPSRFSSSDSDFDDEEPRKFYVH [FCHO1], for which the protein stability index turned out to be 4.87 ± 0.18 under setting [1] and 4.87 ± 0.13 under setting [2].
MYSVEITVEKDKVTGETRVLSSTT [PALM]: the protein stability index by setting is: under setting [1], 2.93 ± 0.21; under setting [2], 3.19 ± 0.16.
Taken in the same sequence, the figures for SDPETKDFWLNMAALTEALQRQAE [FCHO1] were 3.29 ± 0.22 and 3.23 ± 0.32.
As for FTKVVQPQEEIATKKLRLTKPSKS [INTS4], the protein stability index was determined as 3.92 ± 0.57 under setting [1] and 4.07 ± 0.3 under setting [2].
The like results for YATLDLNAVKYVSNIKFCSFHPLQ [PDS5B] were, in that order, 2.31 ± 0.68 and 2.18 ± 0.35.
As for TTNVGRYPVGRFPSLHVVKVLLDC [FEM1A], the protein stability index is, setting by setting: under setting [1], 2.52 ± 0.4; under setting [2], 2.48 ± 0.27.
Taken in the same sequence, the figures for GGGSNNGKTPVCHQCHKVIRGRYL [PDLIM7] were 2.81 ± 0.52 and 3.07 ± 0.42.
Taken in the same sequence, the figures for GPSTPSPVAAQFTSEGTTLSGVDL [FCHO1] were 5.2 ± 0.4 and 4.96 ± 0.53.
RRPSPVLRHLELLDEFARENIDSL [SCNN1D]: the protein stability index was determined as 3.31 ± 0.51 under setting [1] and 3.56 ± 0.38 under setting [2].
Taken in the same sequence, the figures for KLKLVALHKQVLMGPYNPDTCPEV [ACBD3] were 2.38 ± 0.28 and 2.72 ± 0.32.
For the sequence QEQLSLSQRQAKELKLEQQEAAER [LRRC45], the protein stability index is 5.5 ± 0.19 under setting [1] and 5.67 ± 0.22 under setting [2].
Consider TIKKRLENNYYWSASECMQDFNTM [BRD3], for which the protein stability index runs as follows: under setting [1], 2.08 ± 0.47; under setting [2], 2.15 ± 0.43.
Taken in the same sequence, the figures for WEQKVLVIVMTTRFEEGGRRKCGQ [PTPN9] were 2.28 ± 0.2 and 2.28 ± 0.34.
ESFTVHFLPLNSAQTLHHKSCYNG [DNAAF3] had a protein stability index under setting [1] of 2.4 ± 0.62 and a protein stability index under setting [2] of 2.49 ± 0.42.
With ASVVLPARELQEALPEAPAPLLPH [BCL2L13], the protein stability index reads like this: under setting [1], 4.34 ± 0.17; under setting [2], 4.35 ± 0.22.
Consider KCLSIMLAEWEANPLICPVCTKYN [RPAIN], for which the protein stability index worked out at 2.8 ± 0.73 under setting [1] and 2.29 ± 0.19 under setting [2].
Consider LICLKKNHEEEVNTLRSQLGDRLN [KRT34], for which the protein stability index runs as follows: under setting [1], 3.33 ± 0.21; under setting [2], 3.45 ± 0.37.
Taken in the same sequence, the figures for LPIQTPGAFLRTCLLSSNSRSLLT [TLE6] were 2.06 ± 0.34 and 2.1 ± 0.19.
